# Values of other authors as cited in article PMC11170211.
# Test system: Asp102
# Test: NMR
substance,measurement,value
alpha-lytic protease (not stated in the article (described only as bacterial); Lysobacter enzymogenes from outside knowledge),pKa,below 1.5
